This passage reports self-cleavage results from the RNAGym collection of RNA variant scans (doi:10.7554/elife.90254).

To fix the notation:
B1: LINE1-full (parent)
chain: UACGUAGGUGGUUUUCCCCUGAUAGUGCUAAGGGGGCCUGGAAGUUUGGACUGGGCAGAGCUCAACACAGCGUGGCAAAGUGGCUGUGGCUAGACUGCCUCUCUGGAUUCCUCGUCACUCAGCAGGGCAUCUCUGAGAGAAAUGCC

In this data set the parent is B1. Nature of the data set: self-cleavage, relative activity (ratio to wild type); higher = more cleavage; in vitro, sequencing; the parent is a self-cleaving ribozyme.
Take UACGUAGGUGGUUUUCCCCCGAUAGUGCUAAGGGGGCCUGGAAGUUUGGACUGGGCAGAGCUCAACACAGCCUGGCAAAGUGGCUGUGGCUAGACUGCCUCUCUGGAUUCCUCGUCACUCAGCAGGGCAUCUCUGAGAGAAAUGCC [U20C G72C]: the self-cleavage turned out to be 2.53.

On to UACGUAGGUGGUUUUCCCCCGAUAGUGCUAAGGGGGCCUGGAAGUUUGGACUGGGCAGAGCUCAACACAGCGUGGCAAAGUGGCUGUGACUAGACUGCCUCUCUGGAUUCCUCGUCACUCAGCAGGGCAUCUCUGAGAGAAAUGCC [U20C G89A], for which the self-cleavage stood at 0.09.

Regarding UACGUAGGUGGUUUUCCCCCGAUAGCGCUAAGGGGGCCUGGAAGUUUGGACUGGGCAGAGCUCAACACAGCGUGGCAAAGUGGCUGUGGCUAGACUGCCUCUCUGGAUUCCUCGUCACUCAGCAGGGCAUCUCUGAGAGAAAUGCC [U20C U26C], the self-cleavage was 1.26.

Take UACGUAGGUGGUUUUCCCCCGAUAGAGCUAAGGGGGCCUGGAAGUUUGGACUGGGCAGAGCUCAACACAGCGUGGCAAAGUGGCUGUGGCUAGACUGCCUCUCUGGAUUCCUCGUCACUCAGCAGGGCAUCUCUGAGAGAAAUGCC [U20C U26A]: the self-cleavage is 0.92.

Regarding UACGUAGGUGGUUUUCCCCCGAUAGUGCUAAGGGGCCCUGGAAGUUUGGACUGGGCAGAGCUCAACACAGCGUGGCAAAGUGGCUGUGGCUAGACUGCCUCUCUGGAUUCCUCGUCACUCAGCAGGGCAUCUCUGAGAGAAAUGCC [U20C G36C], the self-cleavage is 1.51.

On to UACGUAGGUGGUUUUCCCCCGAUAGUGCUAAGGGGGCCUGGAAGUUUGGACUGUGCAGAGCUCAACACAGCGUGGCAAAGUGGCUGUGGCUAGACUGCCUCUCUGGAUUCCUCGUCACUCAGCAGGGCAUCUCUGAGAGAAAUGCC [U20C G54U], for which the self-cleavage is 0.91.

With UACGUAGGUGGUUUUCCCCCGAUAGUGCUAAGGGGGCCUGGAAGUUUGGACUGGGCAGAGCUCAACACAGCGUGGCAAAGUGGCUGUGGCUAGACUGCCUCUCUGGAUUCCUCGUCACUCAGCAGGGCAUCUCUGAGAGGAAUGCC [U20C A140G], the self-cleavage was found to be 1.35.

For the variant UACGUAGGUGGUUUUCCCCCGAUAGUGCUAAGGGGGCCUGGAAGUUUGGACUGGGCAGAGCUCAACACAGCGUGGCAAAGUGGCUGUGGCUAGACUGCCUCUCUGGAUUUCUCGUCACUCAGCAGGGCAUCUCUGAGAGAAAUGCC [U20C C110U], the self-cleavage turned out to be 1.4.

In the case of UACGUAGGUGGUUUUCCCCCGAUAGUGCUAAGGGGGUCUGGAAGUUUGGACUGGGCAGAGCUCAACACAGCGUGGCAAAGUGGCUGUGGCUAGACUGCCUCUCUGGAUUCCUCGUCACUCAGCAGGGCAUCUCUGAGAGAAAUGCC [U20C C37U], the self-cleavage is 1.33.

As for UACGUAGGUGGUUUUCCCCCGAUAGUGCUAAGGGGGGCUGGAAGUUUGGACUGGGCAGAGCUCAACACAGCGUGGCAAAGUGGCUGUGGCUAGACUGCCUCUCUGGAUUCCUCGUCACUCAGCAGGGCAUCUCUGAGAGAAAUGCC [U20C C37G], the self-cleavage turned out to be 1.08.

As to UACGUAGGUGGUUUUCCCCCGAUAGUGCUAAGGGGGCCUGGAAGUUUGGACUGGGCAGAGCUCAACACAGCGUGGCAAAGUGGCUGUGGCUAGACUGCCUCUCUGGAUUCUUCGUCACUCAGCAGGGCAUCUCUGAGAGAAAUGCC [U20C C111U], the self-cleavage stood at 1.03.

Turning to UACGUAGGUGGUUUUCCCCCGAUAGUGCUAAGGGGGCCUGGAAGUUUGGACUGGGCAGAGCUCAACACAGCGUGGCAAAGUGGCUGUGGCUAGACUGCCUCUCUGGAUUCCUCGUCACUCAGCAGUGCAUCUCUGAGAGAAAUGCC [U20C G126U], the self-cleavage was found to be 1.92.

Consider UACGUAGGUGGUUUUCCCCCGAUAGUGCUAAGGGGGCCUGGAAGUUUGGACUGGGCAGAGCUUAACACAGCGUGGCAAAGUGGCUGUGGCUAGACUGCCUCUCUGGAUUCCUCGUCACUCAGCAGGGCAUCUCUGAGAGAAAUGCC [U20C C63U], for which the self-cleavage turned out to be 0.48.

As for UACGUAGGUGGUUUUCCCCCGAUAGUGCUAAGGGGGCCUGGAAGUUUGGACUGGGCAGAUCUCAACACAGCGUGGCAAAGUGGCUGUGGCUAGACUGCCUCUCUGGAUUCCUCGUCACUCAGCAGGGCAUCUCUGAGAGAAAUGCC [U20C G60U], the self-cleavage amounted to 0.05.

On to UACGUAGGUGGUUUUCCCCCGAUAGUGCUAAGGGGGCCUGGAAGUUUGGACUGGGCAGAGCUCAACACAGCGUUGCAAAGUGGCUGUGGCUAGACUGCCUCUCUGGAUUCCUCGUCACUCAGCAGGGCAUCUCUGAGAGAAAUGCC [U20C G74U], for which the self-cleavage worked out at 1.46.

Consider UACGUAGGUGGUUUUCCCCCGAUAGUGCUAAGGGGGCCUGGAAGUUUGGACUGGACAGAGCUCAACACAGCGUGGCAAAGUGGCUGUGGCUAGACUGCCUCUCUGGAUUCCUCGUCACUCAGCAGGGCAUCUCUGAGAGAAAUGCC [U20C G55A], for which the self-cleavage was determined as 0.25.

With UACGUAGGUGGUUUUCCCCCGAUAGUGCUAAGGGGGCCUGGAAGUUUGGACUGGGCAGAGCUCAACACAGCGUGGCAAAGUGGCUGUAGCUAGACUGCCUCUCUGGAUUCCUCGUCACUCAGCAGGGCAUCUCUGAGAGAAAUGCC [U20C G88A], the self-cleavage worked out at 0.06.

Take UACGUAGGUGGUUUUCCCCCGAUAGUGCUAAGGGGGCCUGGAAGUUUGGACUGGGUAGAGCUCAACACAGCGUGGCAAAGUGGCUGUGGCUAGACUGCCUCUCUGGAUUCCUCGUCACUCAGCAGGGCAUCUCUGAGAGAAAUGCC [U20C C56U]: the self-cleavage turned out to be 0.11.

Take UACGUAGGUGGUUUUCCCCCGAUAGUGCUAAGGGGGCCUGGAAGUUUGGACUGGGCAGAGCUCAACACAGCGUGGCAAAGUGGCUGUGGCUAGACUGACUCUCUGGAUUCCUCGUCACUCAGCAGGGCAUCUCUGAGAGAAAUGCC [U20C C98A]: the self-cleavage is 0.07.

For UACGUAGGUGGUUUUCCCCCGAUAGUACUAAGGGGGCCUGGAAGUUUGGACUGGGCAGAGCUCAACACAGCGUGGCAAAGUGGCUGUGGCUAGACUGCCUCUCUGGAUUCCUCGUCACUCAGCAGGGCAUCUCUGAGAGAAAUGCC [U20C G27A], the self-cleavage is 1.12.

In the case of UACGUAGGUGGUUUUCCCCCGAUAGUGCUAAGGGGGCCUGGAAGUUUGGACUGGGCAGAGCUCAACACAGCGUGGCAAAGUGGCUGUGGCUAGACUGCCUCUCUGGAUUCCUCGUCACUCAGCAGGGCUUCUCUGAGAGAAAUGCC [U20C A129U], the self-cleavage stood at 1.3.

Take UACGUAGGUGGUUUUCCCCCGAUAGUGCUAAGGGGGCCUGGAAGUUUGGACUGGGCAGAGCUCAACACAGCGUGGCAAAGUGGCUGUGGCUAGACUGCCUCUCUGGAUUCCUCGUCACUCAGCAGGGCGUCUCUGAGAGAAAUGCC [U20C A129G]: the self-cleavage is 2.29.

On to UACGUAGGUGGUUUUCCCCCGAUAGUGCUAAGGGGGCCUGGAAGUUUGGACUGGGCAGAGCUCAACACAGCGUGGCAAAGUGGCUGUGGCUAGACUGCCUCUCUGGAUUCCUCGUCACUCAGUAGGGCAUCUCUGAGAGAAAUGCC [U20C C123U], for which the self-cleavage stood at 0.91.

UACGUAGGUGGUUUUCCCCCGAUAGUGCUAAGGGGGCCUGGAAGUUUGGACUGGGCAGAGCUCAACACAGCGUGGCAAAGUGGCUGUGGCUAGACUGCCUCUCUGGAUUCCUCGUCACUCAGAAGGGCAUCUCUGAGAGAAAUGCC [U20C C123A]: the self-cleavage came to 1.34.

Regarding UACGUAGGUGGUUUUCCCCCAAUAGUGCUAAGGGGGCCUGGAAGUUUGGACUGGGCAGAGCUCAACACAGCGUGGCAAAGUGGCUGUGGCUAGACUGCCUCUCUGGAUUCCUCGUCACUCAGCAGGGCAUCUCUGAGAGAAAUGCC [U20C G21A], the self-cleavage was 1.12.

Turning to UACGUAGGUGGUUUUCCCCCGAUAGUGCUAAGGGGGCCUGGAAGUUUGGACUGGGCAGAGCUCAACACAGUGUGGCAAAGUGGCUGUGGCUAGACUGCCUCUCUGGAUUCCUCGUCACUCAGCAGGGCAUCUCUGAGAGAAAUGCC [U20C C71U], the self-cleavage was 0.77.

On to UACGUAGGUGGUUUUCCCCCGAUAGUGCUAAGGGGGCCUGGAAGUUUGGACUGGGCAGAGCUCAACACAGCGUGGCAAAGUGGCUGUGGCUAAACUGCCUCUCUGGAUUCCUCGUCACUCAGCAGGGCAUCUCUGAGAGAAAUGCC [U20C G93A], for which the self-cleavage was found to be 0.04.

Take UACGUAGGUGGUUUUCCCCCGAUAGUGCUAAGGGGGCCUGGAAGUUUGGACUGGGCAGAGCUCAACACAGCGUGGCAAAGUGGCUGUGGCUAGACUGCCUCUCUGGAUUCCUCGUCACUCAGCAGGGCAUCUCUGGGAGAAAUGCC [U20C A136G]: the self-cleavage was found to be 1.26.

With UACGUAGGUGGUUUUCCCCCGAUAGUGCUAAGGGGGCCUGGAAGUUUGGACUGGGCAGAGCUCAACACAGCGUGGCAAAGUGGCUGUGGCUAGACUGCCUCUCUGGAUUCCUCGUCACUCAGCAGGGCAUCUCUGCGAGAAAUGCC [U20C A136C], the self-cleavage was 1.74.

For the variant UACGUAGGUGGUUUUCCCCCGAUAGUGCUAAGGGGGCCUCGAAGUUUGGACUGGGCAGAGCUCAACACAGCGUGGCAAAGUGGCUGUGGCUAGACUGCCUCUCUGGAUUCCUCGUCACUCAGCAGGGCAUCUCUGAGAGAAAUGCC [U20C G40C], the self-cleavage came to 2.31.

Turning to UACGUAGGUGGUUUUCCCCCGAUAGUGCUAAGGGGGCCUGGAAGUUUGGACUGGGCAGAGCUCAACACAGCGUGGCAAAGUGGCUGUGGCUAGACUGCCUCUCUGGAUUCCUAGUCACUCAGCAGGGCAUCUCUGAGAGAAAUGCC [U20C C113A], the self-cleavage amounted to 1.06.

Consider UACGUAGGUGGUUUUCCCCCGAUAGUGCUAAGGGGGCCUGGAAGUUUGGACUGGGCAGAGCUCAACACAGCGUGGCAAAGUGGCUGUGGCUAGACUGCUUCUCUGGAUUCCUCGUCACUCAGCAGGGCAUCUCUGAGAGAAAUGCC [U20C C99U], for which the self-cleavage came out at 0.68.

On to UACGUAGGUGGUUUUCCCCCGAUAGUGCUAAGGGGGCAUGGAAGUUUGGACUGGGCAGAGCUCAACACAGCGUGGCAAAGUGGCUGUGGCUAGACUGCCUCUCUGGAUUCCUCGUCACUCAGCAGGGCAUCUCUGAGAGAAAUGCC [U20C C38A], for which the self-cleavage was found to be 1.11.

As for UACGUAGGUGGUUUUCCCCCGAUAGUGAUAAGGGGGCCUGGAAGUUUGGACUGGGCAGAGCUCAACACAGCGUGGCAAAGUGGCUGUGGCUAGACUGCCUCUCUGGAUUCCUCGUCACUCAGCAGGGCAUCUCUGAGAGAAAUGCC [U20C C28A], the self-cleavage is 0.84.

With UACGUAGGUGGUUUUCCCCCGAUAGUGCUAAGGGAGCCUGGAAGUUUGGACUGGGCAGAGCUCAACACAGCGUGGCAAAGUGGCUGUGGCUAGACUGCCUCUCUGGAUUCCUCGUCACUCAGCAGGGCAUCUCUGAGAGAAAUGCC [U20C G35A], the self-cleavage worked out at 1.73.

As for UACGUAGGUGGUUUUCCCCCGAUAGUGCUAAGGGGGCCUGGAAGUUUGGACUGGGCAGAGCUCAACACAACGUGGCAAAGUGGCUGUGGCUAGACUGCCUCUCUGGAUUCCUCGUCACUCAGCAGGGCAUCUCUGAGAGAAAUGCC [U20C G70A], the self-cleavage was determined as 0.14.

For the variant UACGUAGGUGGUUUUCCCCCGAUAGUGCUAAGGGGGCCUGGAAGUUUGGACUGGGCAGAGCUCAACACAUCGUGGCAAAGUGGCUGUGGCUAGACUGCCUCUCUGGAUUCCUCGUCACUCAGCAGGGCAUCUCUGAGAGAAAUGCC [U20C G70U], the self-cleavage was found to be 0.05.

As to UACGUAGGUGGUUUUCCCCCGAUAGUGCUAAGGGGGCCUGGAAGUUUGGACUGGGCAGAGCUCAACACAGCGUGGCAAAGUGGCUGUGGCUAGACUGCCUCUAUGGAUUCCUCGUCACUCAGCAGGGCAUCUCUGAGAGAAAUGCC [U20C C103A], the self-cleavage came out at 1.49.

With UACGUAGGUGGUUUUCCCCCGAUAGUGCUAAGGGGGCCUGGAAGUUUGGACUGGGCAGAGCUCAACACAGCGUGGCAAAGUGGCUGUGGCUAGACUGCCUCUCUGGAUUCCUCGUCACUCGGCAGGGCAUCUCUGAGAGAAAUGCC [U20C A121G], the self-cleavage turned out to be 1.35.
